Here are results for 16 sequences from the nanobody polyreactivity screen of Harvey et al. (2022).

The data set in a line: yeast display, Sf9 membrane polyspecificity reagent, FACS + sequencing; frameworks hold sequencing errors. The procedure, abridged:
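A nanobody's polyreactivity label depends on the gate it was sorted from. Yeast display cells were stained with 10% biotinylated, detergent-solubilized Sf9 membrane reagent for 1 hour at 4 °C, enriched on streptavidin microbeads and sorted by FACS. The low and high (top ~1%) gates were set on anti-HA fluorescence for expression and streptavidin fluorescence for reagent binding.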
Consider “QVQLVESGGGLVQAGGSLRLSCAASGRTIADNAMGWYRQAPGKEREVVATISYSDSTTYYADSVKGRFTISRDNAKNTVYLQMNSLKPEDTAVYYCAAERLTHWGAFAAYDYWGQGTQVTVSS”, for which the “polyreactivity (PSR sort gate)” value is listed as “low polyreactivity”.
With “QVQLVESGGGLVQAGGSLRLSCAASGIIFDSYAMGWYRPAPGKERELVAAITSDSGRTYYADSVKGRFTISRDNAKNTVYLQMNSLKPEDTAVYYCAKRWDCPYDYWGQGTQVTVSS”, the “polyreactivity (PSR sort gate)” value was “low polyreactivity”.
As to “QVQLVESGGGLVQAGGSLRLSCAASGSTFVDNAMGWYRQAPGKERELVAAIRDGSGGSTRYADSVKGRFTISRDNAKNTVYLQMNSLKPEDTAVYYCAADGYITVNYLRYDYWGQGTQVTVSS”, the “polyreactivity (PSR sort gate)” value was “low polyreactivity”.
In the case of “QVQLVESGGGLVQAGGSLRLSCAASGSIFRRYAMGWYRQAPGKERELVASITSSVGRTYYADSVKGRFTISRDNAKNTVYLQMNSLKPEDTAVYYCAVYVGRWGAGGKGDYWGQGTQVTVSS” it was “low polyreactivity”; in that of “QVQLVESGGGLVQAGGSLRLSCAASGFTFKYYAMGWYRPAPRKERELVADITRSGGSTYYADSVKGRFTISRDNAKNTVYLQMNSLKPEDTAGYYCAVDPVRYPYSYDYWGQGTQVTGSS”, “high polyreactivity”.
In the case of “QVQLVESGGGLVQAGGSLRLSCAASGRTFFSFNAMGWYRQAPGKERELVAAIDGDGGITYYADSVKGRFTISRDNAKNTVYLQMNSLKPEDTAVYYCAAETLFSYAGEDDYWGQGTQVTVSS” it was “low polyreactivity”; in that of “QVQLVESGGGLVQAGGSLRLSCAASGLTFGIYTMGWYRQAPGKERELVAAINWIGTRTYYADSVKGRFTLSRDNAKNTVYLQMNSLKPEDTAVYYCATVIGYTKRKYDYWGQGTQVTVSS”, “high polyreactivity”; in that of “QVQLVESGVGLVQAGGSLRLSCAASGRIFAYYAMGWYRQAPGKERELVAAISSGGTTNYADSVKGRFTISRDNAKNTVYLQMNSLKPEDTAVYYCNADGWRRSRQYYYWGQGTQVTVSS”, “low polyreactivity”.
The same measure for “QVQLVDSGGGLVQAGGSLRLSCAASGITLSWYAKGWYRQAPGQERELVAGISGRGGRTYYADSVKGRFTISRDNAKNTVYLQMNSLKPEDTAVYYCAAVSPGYRSYDYWGQGTQVTVSS”: “high polyreactivity”.
Regarding “QVQLVESRGGLVQAGGSLRLSCPASGLIYVAYAMGWYRQAPGKERELVAAISRNGGSTYYADSVKGRFTISRDNAKNTVYLQMNSLKPEDTAVYYCAARYAYYTARYTQVKGLDYWGQGTQVTVSS”, the “polyreactivity (PSR sort gate)” value is given as “high polyreactivity”.
As to “HLQMQESGGGLVQAGGSLRLSCASSGSIFQATYMGWYRQAPGKEREFVASITYGSITNYADSVKGRFTIGRDNAKDTLYLQMNSLKPEDTAVYYCAVDRHYIPAFHYWGQGTQVTVSS”, the “polyreactivity (PSR sort gate)” value is recorded as “low polyreactivity”.
In the case of “QVQLVESGGGLVQAGGSLRLSCAASGIIYAYYAMGWYRLAPGKEREWVAGISSSGITNYADSVKGRFTISRDNAKNTVYLQMNSLKPEDTAVYSCATDWYYWRHFYWVRRGVRYYYWGQGTQVTVSS” it was “high polyreactivity”.
Take “QVQLVESVGGLLQAGGSLRLSCAASGSTFYNYAMGWYRQAPGKERELVAAIRNGGGTNYADSVKGRFTISRDNAKNTVYLQMNSLKPEDTAVYYCSTRLDWRRTYGYWGQGTQVTVSS”: the “polyreactivity (PSR sort gate)” value is listed as “low polyreactivity”.
“QVQLVESGVGLVQAGGSLRLSCAASGRIFTYYAMGWYRQAPGKERELVAVISSVGGTYYADSVKGRFTISRDNAKNTVYLQMNSLKPEDTAVYYCAVGKIWSRRSSTSRFGYWGQGTQVTVSS”: the “polyreactivity (PSR sort gate)” value is recorded as “high polyreactivity”.
With “QVQLVESGGGLVQAGGSLRLSCAASGFIFTLYAMGWYRQAPGKEREFVAAISWSDGSTTYADSVKGRFTISRDNAKNSVYSQMYSLKPEDTAVYYCADVTCSYIRGLVYHFYYWGQGTQVTVSS”, the “polyreactivity (PSR sort gate)” value is “low polyreactivity”.
Take “QVQLVESGGGLVQAGGSLSLSCAASGSIFAQYAMGWYRQAPGKERELVATISSVGSTNYADSVKGRFTISRANAKNTVYLQMNSLKPEDTAVYYCAADYRHDTFSNEYDYWGQGTQVTVSS”: the “polyreactivity (PSR sort gate)” value was “low polyreactivity”.
